Data taken from publication PMC5130228.

Target: GST-tagged Cdc42, nucleotide-free (human) (UniProt P60953)
Assay: pull-down

UniProt P60953, sequence (P60953 whole entry): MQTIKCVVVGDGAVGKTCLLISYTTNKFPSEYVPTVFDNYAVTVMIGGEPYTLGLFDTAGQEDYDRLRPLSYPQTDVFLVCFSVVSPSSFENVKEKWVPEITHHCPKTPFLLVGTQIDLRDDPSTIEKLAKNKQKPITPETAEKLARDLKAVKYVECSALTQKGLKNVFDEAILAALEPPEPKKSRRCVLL

Work on “MBP-Map residues 37–203 (from UniProt P0AE18 37-203) (domain or fragment)” yielded a stoichiometry N of 1.
